Experimental data: the nanobody polyreactivity screen of Harvey et al. (2022)

Test: yeast display, Sf9 membrane polyspecificity reagent, FACS + sequencing; frameworks hold sequencing errors
Method in brief: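 A synthetic nanobody library was expressed on Saccharomyces cerevisiae BJ5465 by galactose induction for 36–48 hours. The library was stained for 1 hour at 4 °C with 10% biotinylated, detergent-solubilized Sf9 membrane reagent and enriched with streptavidin microbeads before FACS. Low and high (top ~1%) gates were set on anti-HA fluorescence for expression and streptavidin fluorescence for reagent binding, and each polyreactivity label reflects the gate of origin.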
With “QVQLVESGGGLVQAGGSLRLSCAASGSIFSRNAMGWYRQEPGKEREFVAAISYSSGSTYYADSVNGRFTISRDNAKNTVYLQMNSLKPEDTAVYYCAADTTKLQGVEGDYWGQGTQVTVSS” the “polyreactivity (PSR sort gate)” value was “low polyreactivity”. For “QVQLVESGGGLVQAGGSLRLSCAASGSIFSRYAMGWYRQAPGKERELVAAISWRGVSTYYADSVKGRFTISRDNAKNTVYLQMNSLKPEDTAVYYCAADTGRYLDSNYWGQGTQVTVSS”, the “polyreactivity (PSR sort gate)” value was “high polyreactivity”. In the case of “QVQLVESGGGLVQAGGSLRLSCAASGSIFSRYAMGWYRQAPGNERELVAAITSGGSTKYADSVKGRFTISRDNAKNTVYLQMNSLKPEDTAVYYCNADRRFRKYPFGYWGQGTQVTVSS”, the “polyreactivity (PSR sort gate)” value is reported as “high polyreactivity”. With “QVQLVESGGGLVQAGGSLRLSCAASGSIFSRYTRGWYRQAPGKEWELVASISRRGGRTYYADSVKGRFTISRDNAKNTVYLQMNSPKPEDTAVYYCNARGHGSAVGPFTRVNSWGQGTQVTVSS” the “polyreactivity (PSR sort gate)” value was “high polyreactivity”. In the case of “QVQLVESGGGLVQAGGSLRLSCAASGSIFSSNAMGWYIQAPGKERELVASIDGGPTTYADSVKGRFTISRDNAKNTVYLQMNSLKPEDTAVYYCNADSLDGPKFDYWGQGTQVTVSS”, the “polyreactivity (PSR sort gate)” value is reported as “low polyreactivity”. With “QVQLVESGGGLVQAGGSLRLSCAASGSIFSSNAMGWYRPAPGKERELVAAISSGGTTNYADSVKGRFTISRDNAKHTVYLQMNSLKPEDTAVYYCAKRGPSRPAEYDYWGQGTQVTVSS” the “polyreactivity (PSR sort gate)” value was “low polyreactivity”. For “QVQLVESGGGLVQAGGSLRLSCAASGSIFSSNAMGWYRPAPGKERELVAAISWNGGRTYYADSVKGRFTISRDNAKNTVYLQMNSLKPEDTAVYYCATRFYRPRDGLYDYWGQGTQVTVSS”, the “polyreactivity (PSR sort gate)” value was “high polyreactivity”. For “QVQLVESGGGLVQAGGSLRLSCAASGSIFSSNAMGWYRQAPGKERELVAAISKSGSRTYYADSVKGRFTISRDNAKNTVYLQMNSLKPEDTAVYYCNAVGVSVYYAIAYDYWGQGTQVTVSS”, the “polyreactivity (PSR sort gate)” value was “high polyreactivity”. In the case of “QVQLVESGGGLVQAGGSLRLSCAASGSIFSSNAMGWYRQAPGKERELVAAITRGGRTTYADSVKGRFTISRDNAKNTVYLQMNSLKPEDTAVYYCAALHGRYPNRYDYWGQGTQVTVSS”, the “polyreactivity (PSR sort gate)” value is reported as “low polyreactivity”. For “QVQLVESGGGLVQAGGSLRLSCAASGSIFSSYAMGWYRQAPGKERELVAAISKSGVSTYYADSVKGRFTISRDNAKNTVYLQMNSLKPEDTAVYYCNAKGKYWHYDYWGQGTQVTVSS”, the “polyreactivity (PSR sort gate)” value was “high polyreactivity”. In the case of “QVQLVESGGGLVQAGGSLRLSCAASGSIFSSYAMGWYRQAPGKERELVAAITSGGSTYYADSVKGRFTISRDNAKNTVYLLMNSLKPEDTAVYYCAARQVRTSILHMGYWGQGTQVTVSS”, the “polyreactivity (PSR sort gate)” value is reported as “low polyreactivity”. For “QVQLVESGGGLVQAGGSLRLSCAASGSIFSSYAMGWYRQAPGKEREVVASINSAGSTNYADSVKGRFTISRDNAKNTVYLQMNSLKPDDTAVYYCAASGGTWVNYRPEYDYWGQGTQVTVSS”, the “polyreactivity (PSR sort gate)” value was “low polyreactivity”. With “QVQLVESGGGLVQAGGSLRLSCAASGSIFSSYVMGWYRQAPGKEREVVAAITSRGGSTYYADSVKGRFTISRDNAKNTVYLQMNSLKPEDTAVYYCAKGGTTWYWSGYRSIYFRYDYWGQGTQVTVSS” the “polyreactivity (PSR sort gate)” value was “high polyreactivity”. In the case of “QVQLVESGGGLVQAGGSLRLSCAASGSIFSTNAMGWYRQAPGKERELVAVITGIGGITYYADSVKGRFTISRDIAKNTVYLQMNSLIPEDTAVYYCAVGYWDSRYRYDLPNSDYWGQGTEVTVSS”, the “polyreactivity (PSR sort gate)” value is reported as “low polyreactivity”. For “QVQLVESGGGLVQAGGSLRLSCAASGSIFSTYAMGWYRQAHGKERELVAAISRSGGSTYYADSVKGRFTISRDNAKNTVYLQMNSLKPEDTAVYYCAKVGRRQRYDYWGQGTQVTVSS”, the “polyreactivity (PSR sort gate)” value was “high polyreactivity”. With “QVQLVESGGGLVQAGGSLRLSCAASGSIFSTYAMGWYRQAPGKERELVASITSTGGSTYYADSVKGRFTISRDNAKNTVYLQMNSLKPEDTAVYYCAARYRRTHRYYYAYSTMDYWGQGTQVTVSS” the “polyreactivity (PSR sort gate)” value was “high polyreactivity”. In the case of “QVQLVESGGGLVQAGGSLRLSCAASGSIFSTYAMGWYRQAPGKERELVATIRRGGSTYYADSVKGRFTISRDNAKNTVYLQMNSLKPEDTAVYYCAATVSSYPYYRYYSWGQGTQVTVSS”, the “polyreactivity (PSR sort gate)” value is reported as “high polyreactivity”. In the case of “QVQLVESGGGLVQAGGSLRLSCAASGSIFSTYAMGWYRQAPGTERELVAAITWSGGSTYYADSVKGRFTISRDNAKNTVYFQMNSLKPEDTAVYYCATRGQGWGGKYGYWGQGTQVTVSS”, the “polyreactivity (PSR sort gate)” value is reported as “low polyreactivity”. With “QVQLVESGGGLVQAGGSLRLSCAASGSIFSTYTMGWYRQAPGKERELVAAITRSGGSTYYADSVKGRFTISRDNAKNTVYLQMNSLKPEDTAVYYCAARWKFPSSFYYWGQGTQVTVSS” the “polyreactivity (PSR sort gate)” value was “high polyreactivity”. In the case of “QVQLVESGGGLVQAGGSLRLSCAASGSIFSWNAMGWYRQAPGKERELVAAITGGGSTYYADSVKGRFTISRDNAKNTFYLQMNSLKPEDTAVYYCNALWYWDKLEYWGQGTQVTVSS”, the “polyreactivity (PSR sort gate)” value is reported as “high polyreactivity”. In the case of “QVQLVESGGGLVQAGGSLRLSCAASGSIFSWYAMGSYTQAPGKESELVAAITRGGSTYADSVKGRFTISRDNAKNTVYLQMNSLKPEDTAVYYCNAVYGVYDFNYWGQGTQVTVSS”, the “polyreactivity (PSR sort gate)” value is reported as “low polyreactivity”. In the case of “QVQLVESGGGLVQAGGSLRLSCAASGSIFSWYAMGWYRQAPGKERELVAAITWTGGSTYYADSVKGRFTISRDNAKNTVYLQMNSLKPEDTAVYYCAARRVVYRYYWYSAYDYWGQGTQVTVSS”, the “polyreactivity (PSR sort gate)” value is reported as “high polyreactivity”. For “QVQLVESGGGLVQAGGSLRLSCAASGSIFSYKAMGWYRQAPGKERELVAAISWSGGRTYYADSVKGRFTISRDNAKNTVYLQMNSLKPEDTAVYYCNAQYRLYSEFNYWGQGTQVTVSS”, the “polyreactivity (PSR sort gate)” value was “high polyreactivity”. In the case of “QVQLVESGGGLVQAGGSLRLSCAASGSIFSYNAMGWNRQAPGKESELVAAISWSGGRTYYADSVKGRFTISRDNAKNTVYLQMNSLKPEDTAVYYCNAQYRLYSEFNYWGQGTQVTVSS”, the “polyreactivity (PSR sort gate)” value is reported as “high polyreactivity”. With “QVQLVESGGGLVQAGGSLRLSCAASGSIFSYNAMGWYRQAPGKERELVAVITRGGSTYYADSVKGRFTISRDNAKNTVYLQMNSLKPEDTAVYYCAAGAHRRGYDYWGQGTQVTVSS” the “polyreactivity (PSR sort gate)” value was “high polyreactivity”. In the case of “QVQLVESGGGLVQAGGSLRLSCAASGSIFSYNGMGWYRQAPGKEREFVAAITWRGGSTYYADSVKGRFTISRDNAMNTVYLQMNSLKPEDTAVYYCARRPGYALTWRVSGRYDYWGQGTQVTVSS”, the “polyreactivity (PSR sort gate)” value is reported as “high polyreactivity”. For “QVQLVESGGGLVQAGGSLRLSCAASGSIFSYNMGWYRQAPGKEREFVAAISSGGSTYYADSVKGRFTISRDNAKNTVYLQMNSLKPEDTAVYYCNRVRRGVWRQDDYWGQGTQVTVSS”, the “polyreactivity (PSR sort gate)” value was “high polyreactivity”. For “QVQLVESGGGLVQAGGSLRLSCAASGSIFSYNTMGWYRQAPGKERELVASISSSGGTTYYADSVKGRFTISRDNAKNTVYLQMNSLKPEDTAVYYCAAKLRSYYSGPRYYYWGQGTQVTVSS”, the “polyreactivity (PSR sort gate)” value was “high polyreactivity”. In the case of “QVQLVESGGGLVQAGGSLRLSCAASGSIFSYYAMAWYRHAPGKEREMVAAITSGGATTYYADSVKGRFTISRDNAKNTVYLQMNSLKQEDTAVYFCAAGYYVYFRWWELDYWGQGTQVTVSS”, the “polyreactivity (PSR sort gate)” value is reported as “low polyreactivity”. For “QVQLVESGGGLVQAGGSLRLSCAASGSIFSYYAMAWYRQAPGKERELVAAITWSGTRTYYADSVKGRFTISRDNAKNTVYLQMNSLKPEDTAVYYCAADSSIRDDYWGQGTQVTVSS”, the “polyreactivity (PSR sort gate)” value was “low polyreactivity”. In the case of “QVQLVESGGGLVQAGGSLRLSCAASGSIFSYYAMGWYRQAPGKERELFADINLDDGRTYYADSVKGRFTISRDNAKNTVYLQMNSLKPEDTAVYYCAADEFYSFRYLFGPTFDYWGQGTQVTVSS”, the “polyreactivity (PSR sort gate)” value is reported as “high polyreactivity”. For “QVQLVESGGGLVQAGGSLRLSCAASGSIFSYYAMGWYRQAPGKERELVAAISGSGGSTYYADSVKGRFTISRDNAKNTVYLQMNSLKPDDNAVYSCAARYYAWGRRRTWDDYWGQGTQVTVSS”, the “polyreactivity (PSR sort gate)” value was “high polyreactivity”. For “QVQLVESGGGLVQAGGSLRLSCAASGSIFSYYAMGWYRQAPGKERELVAAISKRGASTYYADSVKGRFTISRDIAKNTVYLQMNSLKPEDTAVYYCAGYRQGSAYDYWGQGTQVTVSS”, the “polyreactivity (PSR sort gate)” value was “high polyreactivity”. For “QVQLVESGGGLVQAGGSLRLSCAASGSIFSYYAMGWYRQAPGKERELVAAISWGDDSTYYADSVKGRFTISRDNAKNTVYLQMNSLKPEDTAVYYCAADRVGWYRTFDYWGQGTQVTVSS”, the “polyreactivity (PSR sort gate)” value was “low polyreactivity”. In the case of “QVQLVESGGGLVQAGGSLRLSCAASGSIFSYYAMGWYRQAPGKERELVAAISWNGGRTYYADSVKGRFTISRDNAMNTVFLQMNSLKPEDTAVYYCNAVKVYSYGLYGYWGQGTQVTVSS”, the “polyreactivity (PSR sort gate)” value is reported as “high polyreactivity”. With “QVQLVESGGGLVQAGGSLRLSCAASGSIFSYYAMGWYRQAPGKERELVAAITGGGTTNYADSVKGRFTISRDNAKNTDYLQMNSLKPEDTAVYYCAADEPDVFAPGLYYWGQGTQVTLSS” the “polyreactivity (PSR sort gate)” value was “low polyreactivity”. With “QVQLVESGGGLVQAGGSLRLSCAASGSIFSYYTMGWYRPAPGKERELVAAISYSGGRTYYADSVKGRFTISRDNAKNTVYLQMNSLKTEDTAVYYCSAKLLQLRGRGYEYWGQGTQVTVSS” the “polyreactivity (PSR sort gate)” value was “high polyreactivity”. For “QVQLVESGGGLVQAGGSLRLSCAASGSIFSYYTMGWYRQAPGTERELVAASTRGGRTSYADSVKGRFTISRDNAKNTVYLQMNSLKPEDTAVYYCAADYWYFTHQLSTYGDNYWGQGTQVTVSS”, the “polyreactivity (PSR sort gate)” value was “low polyreactivity”. In the case of “QVQLVESGGGLVQAGGSLRLSCAASGSIFSYYVMGWYRQAPGKERELVAAISWSGGSTYYADSVKGRFTISRDNSKNTVYLQMNSLKPEDTAVYYCAAGTYPYYWGQGTQVTVSS”, the “polyreactivity (PSR sort gate)” value is reported as “low polyreactivity”. In the case of “QVQLVESGGGLVQAGGSLRLSCAASGSIFSYYVMGWYRQAPGTERELVAAISYSGGRTYYADSVKGRFTISRDNAKNTVYLQMNSLKPEDTAVYYCAASRRVGEVSYYYWGQGTQVTVSS”, the “polyreactivity (PSR sort gate)” value is reported as “high polyreactivity”. In the case of “QVQLVESGGGLVQAGGSLRLSCAASGSIFTANAMGWYRQAPGKERELVAAISRSGGNTYYADSVKGRFTISRDNAKNTVYLQMNSLKPEDTAVYYCAARQKGTGNYWGQGTQVTVSS”, the “polyreactivity (PSR sort gate)” value is reported as “high polyreactivity”. For “QVQLVESGGGLVQAGGSLRLSCAASGSIFTAYAMGWYRQAPGKERELVAAITTSGDSTYYADSVKGRFTISRDNAKNTVYLQMNSLKPEDTAVYYCAAEYYSYRITTYDYWGQGTQVTVSS”, the “polyreactivity (PSR sort gate)” value was “high polyreactivity”. In the case of “QVQLVESGGGLVQAGGSLRLSCAASGSIFTDNVMGWYSQAPGKERELVAAITYSAASTYYADSVKGRFTISRDNAKNTVYLQMNSLKPEDTAVYYCNARIIYRKWLFRSGTFNYWGQGTQVTVSS”, the “polyreactivity (PSR sort gate)” value is reported as “low polyreactivity”.
